To fix the notation:
T1: FlhA (Salmonella enterica, UniProt P40729 1-692)
T1 construct: FlhA, Salmonella enterica, transmembrane export gate protein; source: Salmonella SJW1368, pTrc99A-based plasmid, in DDM- or LMNG-solubilised membranes; co-purified
T1 sequence: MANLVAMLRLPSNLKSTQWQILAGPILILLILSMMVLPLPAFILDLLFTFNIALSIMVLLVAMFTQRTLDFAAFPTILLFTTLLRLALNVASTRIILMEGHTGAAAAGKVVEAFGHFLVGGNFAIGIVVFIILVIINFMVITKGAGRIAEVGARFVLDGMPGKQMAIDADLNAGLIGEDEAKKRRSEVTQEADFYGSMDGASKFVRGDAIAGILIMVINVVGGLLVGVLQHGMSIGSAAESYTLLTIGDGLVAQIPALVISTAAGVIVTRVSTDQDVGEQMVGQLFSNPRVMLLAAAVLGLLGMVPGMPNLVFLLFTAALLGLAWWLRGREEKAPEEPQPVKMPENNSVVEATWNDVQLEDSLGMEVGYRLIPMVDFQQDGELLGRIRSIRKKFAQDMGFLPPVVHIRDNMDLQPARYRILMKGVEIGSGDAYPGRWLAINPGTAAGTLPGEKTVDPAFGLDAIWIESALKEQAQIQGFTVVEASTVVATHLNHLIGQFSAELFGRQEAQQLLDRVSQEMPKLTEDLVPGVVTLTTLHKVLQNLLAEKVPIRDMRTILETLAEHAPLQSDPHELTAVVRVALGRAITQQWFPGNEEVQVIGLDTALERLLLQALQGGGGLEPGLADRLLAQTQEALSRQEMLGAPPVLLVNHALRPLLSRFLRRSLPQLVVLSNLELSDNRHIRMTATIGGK

T2: FliR-FLAG (Salmonella enterica, UniProt P54702 1-264)
T2 construct: FliR, Salmonella enterica, transmembrane export gate protein; also called FLAG-FliR (as printed in the methods); source: Salmonella SJW1368, pTrc99A-based plasmid, in DDM- or LMNG-solubilised membranes; co-purified (Ni-NTA, anti-FLAG gel, SEC)
T2 sequence: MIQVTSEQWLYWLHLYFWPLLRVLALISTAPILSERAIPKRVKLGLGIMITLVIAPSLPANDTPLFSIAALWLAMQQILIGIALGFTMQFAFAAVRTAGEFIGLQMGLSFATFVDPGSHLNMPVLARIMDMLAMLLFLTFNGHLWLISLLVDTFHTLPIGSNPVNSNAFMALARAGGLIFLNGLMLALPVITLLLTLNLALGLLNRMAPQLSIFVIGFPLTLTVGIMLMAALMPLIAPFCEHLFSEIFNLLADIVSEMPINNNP

T3: FlhB (Salmonella enterica, UniProt P40727 1-383)
T3 construct: FlhB, Salmonella enterica, transmembrane export gate protein; its C-terminal cytoplasmic domain undergoes autocleavage between Asp-269 and Pro270 as printed; source: Salmonella SJW1368, pTrc99A-based plasmid, in DDM- or LMNG-solubilised membranes; co-purified
T3 sequence: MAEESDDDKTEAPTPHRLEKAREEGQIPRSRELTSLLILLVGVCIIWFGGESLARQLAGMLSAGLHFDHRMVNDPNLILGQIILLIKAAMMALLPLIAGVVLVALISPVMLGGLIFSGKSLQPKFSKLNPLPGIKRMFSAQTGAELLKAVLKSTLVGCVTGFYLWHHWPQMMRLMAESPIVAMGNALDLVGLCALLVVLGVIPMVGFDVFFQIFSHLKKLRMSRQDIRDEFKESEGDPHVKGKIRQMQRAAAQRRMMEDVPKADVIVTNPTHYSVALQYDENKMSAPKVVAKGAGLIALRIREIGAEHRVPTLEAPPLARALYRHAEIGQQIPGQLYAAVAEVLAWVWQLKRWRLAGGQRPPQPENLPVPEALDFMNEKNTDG

B1: His-St-FliP (Salmonella FliP with a hexahistidine tag inserted between Gln-22 and Leu-23) (natural protein)
chain: QLPGLISQPLAGGGQSWSLSVQTLVFITSLTFLPAILLMMTSFTRIIIVFGLLRNALGTPSAPPNQVLLGLALFLTFFIMSPVIDKIYVDAYQPFSEQKISMQEALDKGAQPLRAFMLRQTREADLALFARLANSGPLQGPEAVPMRILLPAYVTSELKTAFQIGFTIFIPFLIIDLVIASVLMALGMMMVPPATIALPFKLMLFVLVDGWQLLMGSLAQSFYS
notes: FliP, Salmonella enterica, 25-kDa transmembrane protein; mature form studied; the signal peptide (Met-1 to Gln-22) is cleaved during membrane insertion; tag LHHHHHH inserted between Gln-22 and Leu-23; Hexameric ring in SEC peak 2; also called His-FliP; FliP6 ring; source: Salmonella SJW1368, membranes solubilised with 1% DDM or 1% LMNG; purified (Ni-NTA, SEC); not shown: His6 (LHHHHHH), internal …
B2: HA-FliQ (natural protein)
chain: MTPESVMMMGTEAMKVALALAAPLLLVALITGLIISILQAATQINEMTLSFIPKIVAVFIAIIVAGPWMLNLLLDYVRTLFSNLPYIIG
notes: FliQ, Salmonella enterica, transmembrane export gate protein; source: Salmonella SJW1368, pTrc99A-based plasmid, in DDM- or LMNG-solubilised membranes; co-purified

Series [1] deals with the molecule itself. The series can be described thus: SEC; Ni-purified His-FliP or FliO/His-FliP complexes (wild type and mutants) on Superdex 200 10/300; 20 mM Tris-HCl pH 8.0, 300 mM NaCl, 2 mM EDTA, 5% glycerol, 0.1% DDM.
Series [2] concerns the target T1, FlhA. The experiment in a line: pull-down; Ni-NTA copurification with His-FliP from SJW1368 co-expressing FlhA, FlhB, FliO, His-FliP, HA-FliQ and FliR-FLAG; membranes solubilised with 1% LMNG; immunoblot (lane L of Fig 6B). The note with it: partners not purified.
Series [3] deals with the molecule itself. The experiment in a line: negative-stain electron microscopy with 2D class averaging; purified SEC peak fractions, 1.0% uranyl acetate, 100 kV; autocorrelation analysis for the rotational symmetry of the FliP ring.
In series [4] the target is T2, FliR-FLAG. The series can be described thus: pull-down; copurification from Salmonella SJW1368 co-expressing His-FliP with other export gate proteins; membranes solubilised with 1% DDM; Ni affinity, then anti-FLAG M2 affinity (eluted with FLAG peptide), then SEC on Superdex 200 10/300; SDS-PAGE with CBB. The conditions noted are these: partners not purified.
For series [5], the target named is T3, FlhB. The series is described as above. The note with it: partners not purified.
In series [6] the target is B1. The series can be described thus: pull-down; Ni-NTA copurification with His-FliP from SJW1368 co-expressing FlhA, FlhB, FliO, His-FliP, HA-FliQ and FliR-FLAG; membranes solubilised with 1% LMNG; immunoblot (lane L of Fig 6B). The conditions noted are these: partners not purified.

For orientation: stoichiometry N means a count of units in the complex or per binding partner. Turning to B1, the figures for the “stoichiometry N” value in series [1] and in series [3] were 2 and 6, respectively. Also, the binding result in series [2], in series [4] and in series [5] was “binds” throughout.
Regarding B2, the binding result in series [6] is “binds”.

(Values after article PMC5542437, “Assembly and stoichiometry of the core structure of the bacterial flagellar type III export gate complex” (PLoS Biology, 2017).)
